According to article PMC11635287, “Molecular interactions of the chaperone CcmS and carboxysome shell protein CcmK1 that mediate β-carboxysome assembly” (Plant Physiology, 2024):
Blank lines part the entries; values can stand above or below the molecule they belong to.

T1: CcmS-His (His-tagged CcmS from Nostoc sp. PCC 7120) (Nostoc sp. PCC 7120, UniProt A0ACD6B954 1-142, dye label on the His tag in the MST assays)
T1 chain: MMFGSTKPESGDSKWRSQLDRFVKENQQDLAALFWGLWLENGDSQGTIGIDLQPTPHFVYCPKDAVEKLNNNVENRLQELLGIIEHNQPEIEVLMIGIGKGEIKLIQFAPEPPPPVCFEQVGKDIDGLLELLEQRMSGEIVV

B1: CcmS from Nostoc sp. PCC 7120 (as used for crystallization, Native-PAGE and gel filtration; tag not told) (natural protein, UniProt A0ACD6B954 1-142, looked up)
chain: T1 chain
notes: CcmS, Nostoc sp; ccmS encodes a protein of 142 amino acids; GenBank BAB73249.1; crystal structures PDB 8ZLH (alone) and 8ZLZ (with CcmK1-C15); also called CcmS dimer; purified CcmS; source: E. coli BL21(DE3), purified (Ni2+-NTA or Strep-tag XT, gel filtration)
B2: CcmK1-His (His-tagged CcmK1 from Nostoc sp. PCC 7120) (natural protein, UniProt A0ACD6B949 1-114, looked up)
chain: MSIAVGMVETLGFPAVVEAADAMVKAARVTLVGYEKIGSGRVTVIVRGDVSEVQASVAAGVESVKRVNGGQVLSTHIIARPHENLEYVLPIRYTEDVEQFRENVNAIRPFGRRP
notes: CcmK1, carboxysome shell protein, Nostoc sp; GenBank BAB72824.1; synthesized gene in pET-22b(+); The His tag is named for the pull-down only; also called CcmK1 hexamer; source: E. coli BL21(DE3), purified (Ni2+-NTA, gel filtration)

Columns and labels:
[1] = target: CcmK1-ΔC12, His-tagged (C-terminus-truncated CcmK1 from Nostoc sp. PCC 7120) (Nostoc sp. PCC 7120); assay: SEC; gel filtration chromatography of CcmK1 or CcmK1-ΔC12 alone (Supplementary Figs. S4 and S5)
[2] = target: CcmS-His (His-tagged CcmS from Nostoc sp. PCC 7120) (Nostoc sp. PCC 7120); assay: MST; His-tagged CcmS labelled with dye as target at 0.25 μM; non-labelled ligand in 2-fold steps, 16 capillaries; Monolith NT.115, 25 °C, 60% excitation power
[3] = target: T1, CcmS-His (His-tagged CcmS from Nostoc …); assay: MST
[4] = target: the molecule itself; assay: crystal structure; CcmS mixed with CcmK1-C15 at a molar ratio of 1:10, space group P41212, 1.67 Å; 0.2 M lithium sulfate, 0.1 M Tris pH 8.5, 1.26 M ammonium sulfate, 18 °C
[5] = target: B2; assay: SEC + native gel or EMSA; molecular mass of the CcmS/CcmK1 complex by gel filtration chromatography and Native-PAGE (Supplementary Figs. S3B and S5A); settings: both partners purified
[6] = target: the molecule itself; assay: SEC; gel filtration chromatography of CcmK1 or CcmK1-ΔC12 alone (Supplementary Figs. S4 and S5)
[7] = target: T2, CcmS-His (His-tagged CcmS from Nostoc sp. PCC 7120) (Nostoc sp. PCC 7120, UniProt A0ACD6B954 1-142, dye label on the His tag in the MST assays); assay: MST; His-tagged CcmS labelled with dye as target at 0.25 μM; non-labelled ligand in 2-fold steps, 16 capillaries; Monolith NT.115, 25 °C, 60% excitation power; settings: both partners purified
T2 construct: CcmS, Nostoc sp; ccmS encodes a protein of 142 amino acids; GenBank BAB73249.1; synthesized gene in pET-22b(+); also called CcmS dimer; source: E. coli BL21(DE3), purified (Ni2+-NTA, gel filtration)

stoichiometry N [1]: 6
Molecule: CcmK1-ΔC12, His-tagged (C-terminus-truncated CcmK1 from Nostoc sp. PCC 7120) (domain or fragment)

Kd [2]: 41.5 µM
Molecule: CcmK1-C12 (12-amino acid C-terminal peptide of CcmK1)

Kd [3]: 101 µM
Molecule: FRENVNAIRPFGARP [CcmK1-C15 R112A peptide]

Molecule: B1
stoichiometry N [4]: 2 | stoichiometry N [5]: 2 CcmS dimers per CcmK1 hexamer

Molecule: B2
stoichiometry N [6]: 6 | Kd [7]: 34.5 µM
